Data as given in PMC9770967, “Native holdup (nHU) to measure binding affinities from cell extracts” (Science Advances, 2022).

B1: CNBP: Cellular nucleic acid-binding protein (protein, UniProt P62633 2-177, looked up)
CCHC-type zinc finger nucleic …: SSNECFKCGRSGHWARECPTGGGRGRGMRSRGRGGFTSDRGFQFVSSSLPDICYRCGESGHLAKDCDLQEDACYNCGRGGHIAKDCKEPKREREQCCYNCGKPGHLARDCDHADEQKCYSCGEFGHIQKDCTKVKCYRCGETGHVAINCSKTSEVNCYRCGESGHLARECTIEATA
B2: full-length SLC16A1: monocarboxylate transporter 1, endogenous full-length prey (protein, UniProt P53985 1-500, looked up)
chain: MPPAVGGPVGYTPPDGGWGWAVVIGAFISIGFSYAFPKSITVFFKEIEGIFHATTSEVSWISSIMLAVMYGGGPISSILVNKYGSRIVMIVGGCLSGCGLIAASFCNTVQQLYVCIGVIGGLGLAFNLNPALTMIGKYFYKRRPLANGLAMAGSPVFLCTLAPLNQVFFGIFGWRGSFLILGGLLLNCCVAGALMRPIGPKPTKAGKDKSKASLEKAGKSGVKKDLHDANTDLIGRHPKQEKRSVFQTINQFLDLTLFTHRGFLLYLSGNVIMFFGLFAPLVFLSSYGKSQHYSSEKSAFLLSILAFVDMVARPSMGLVANTKPIRPRIQYFFAASVVANGVCHMLAPLSTTYVGFCVYAGFFGFAFGWLSSVLFETLMDLVGPQRFSSAVGLVTIVECCPVLLGPPLLGRLNDMYGDYKYTYWACGVVLIISGIYLFIGMGINYRLLAKEQKANEQKKESKEEETSIDVAGKPNEVTKAAESPDQKDTDGGPKEEESPV
modifications: full-length
notes: monocarboxylate transporter 1, endogenous full-length prey

What was measured:
SNX27_PDZ [1] = experiment: AP-MS control pull-down on leftover resin, SNX27_PDZ bait, total SH-SY5Y extracts; format: binding, human; settings: n = 6
Description: Leftover beads from nHU-MS experiments were washed three times immediately after the separation of the supernatant [10 resin volume in buffer containing 50 mM tris (pH 8.5), 150 mM NaCl, 1% Triton X-100, 10× cOmplete EDTA-free protease inhibitor cocktail, 2 mM EDTA, and 1 mM TCEP]. Then, the beads were washed two times [10 resin volume buffer containing 50 mM tris (pH 8.5), 150 mM NaCl, and 1 mM TCEP]. Last, captured protein was eluted from the resin in two steps, and the eluted fractions were pooled. For each elution, the beads were incubated for 30 min with three resin volume buffer containing 20 mM tris (pH 8.5), 100 mM NaCl, 500 μM TCEP, and 8 M urea. Between each step, the beads were separated by mild centrifugation, and the supernatant was removed by gentle pipetting.
The nHU samples were precipitated with trichloroacetic acid (TCA) 20% overnight at 4°C and centrifuged at 14,000 rpm for 10 min at 4°C. The protein pellets were washed twice with 1 ml of cold acetone and air-dried. […]
Samples were analyzed using an Ultimate 3000 nano-RSLC coupled in line via a nano-electrospray ionization source, with an LTQ-Orbitrap ELITE mass spectrometer (Thermo Fisher Scientific, San Jose, CA) or with the Orbitrap Exploris 480 mass spectrometer (Thermo Fisher Scientific, Bremen, Germany) equipped with a high field asymmetric ion mobility spectrometry (FAIMS) module. […]

SNX27_PDZ [2] = experiment: nHU-MS, SNX27_PDZ bait, total SH-SY5Y extracts; format: binding, human
Description: The empty His6-AviTag-MBP-TEV vector was used to produce biotinylated MBP for control experiments. Proteins were coexpressed with BirA biotin ligase (PET21a-BirA, Addgene, no. 20857) in Escherichia coli BL21(DE3) cells. At isopropyl-β-D-thiogalactopyranoside (IPTG) induction (1 mM IPTG at 18°C overnight), 50 μM biotin was added to the media. Harvested cells were lysed in a buffer containing 50 mM tris (pH 7.5), 150 to 300 mM NaCl, 50 μM biotin, 2 mM β-mercaptoethanol, cOmplete EDTA-free protease inhibitor cocktail (Roche, Basel, Switzerland), 1% Triton X-100, and trace amount of deoxyribonuclease, ribonuclease, and lysozyme. Lysates were frozen at −20°C before further purification steps. Lysates were sonicated and centrifuged for clarification. Expressed proteins were captured on in-house prepacked Ni-IDA (Protino Ni-IDA Resin, Macherey-Nagel, Duren, Germany) columns and were washed with at least 10 column volumes of cold wash buffer [50 mM tris (pH 7.5), 150 mM NaCl, and 2 mM β-mercaptoethanol] before elution with 250 mM imidazole. The Ni elution was collected directly on a preequilibrated amylose column (amylose high flow resin, New England Biolabs, Ipswich, MA). Amylose column was washed with 5 column volumes of cold wash buffer before fractionated elution in a buffer containing 25 mM Hepes (pH 7.5), 150 mM NaCl, 1 mM TCEP, 10% glycerol, 5 mM maltose, and cOmplete EDTA-free protease inhibitor cocktail. The concentration of proteins was determined by their ultraviolet absorption at 280 nm before aliquots were snap-frozen in liquid nitrogen and stored at −80°C.
For saturating streptavidin resin with biotinylated peptides or biotin, 50 μl of streptavidin resin was mixed with biotin or peptide at 40 to 60 μM concentration in 6 to 6.5 resin volume for 60 min. To saturate streptavidin resin with biotinylated proteins, 50 μl of streptavidin resin (Streptavidin Sepharose High Performance, Cytiva) was mixed with biotinylated MBP or MBP-PDZ at 40 to 50 μM concentration in 20× resin volume for 60 min. After saturation, resins were washed a single time [10 resin volume, holdup buffer: 50 mM tris (pH 7.5), 300 mM NaCl, and 1 mM TCEP, 0.22-μm filtered] and were depleted with biotin (10 resin volume, 10 min, holdup buffer supplemented with 100 μM biotin). Last, resins were washed two times (10 resin volume, holdup buffer).
For single-point nHU experiments carried out at ~10 μM bait concentration, 50 μl of saturated streptavidin resin was mixed with 200 μl of cell lysate (2 mg/ml). Titration experiments were carried out by mixing control and bait-saturated resin and keeping the total resin volume constant; e.g., ~5 μM bait concentration can be achieved by mixing 25 μl of bait-saturated streptavidin resin with 25 μl of control resin and 200 μl of cell lysate (2 mg/ml). Control and bait-saturated resins were prepared in larger amounts, and a serial dilution was prepared with these presaturated resins to achieve different resin ratios.
Unless specified elswhere, the nHU mixture was incubated at 4°C for 2 hours. After the incubation ended, the resin was separated from the supernatant by a brief centrifugation (15 s, 2000 g). Then, half of the supernatant was removed by pipetting without any delay to avoid any resin contamination; e.g., 100 μl of supernatant is collected if 200 μl of cell lysate was used as analyte. Alternatively, the supernatant can be centrifuged an additional time to clarify it further, removing any possible resin contamination. […]

full-length SNX27 = experiment: nHU-WB titration, full-length SNX27 bait, total Jurkat extracts; format: binding; settings: partial activity model (Eq. 4)
Description: The empty His6-AviTag-MBP-TEV vector was used to produce biotinylated MBP for control experiments. Proteins were coexpressed with BirA biotin ligase (PET21a-BirA, Addgene, no. 20857) in Escherichia coli BL21(DE3) cells. At isopropyl-β-D-thiogalactopyranoside (IPTG) induction (1 mM IPTG at 18°C overnight), 50 μM biotin was added to the media. […] Lysates were frozen at -20°C before further purification steps. Lysates were sonicated and centrifuged for clarification. Expressed proteins were captured on in-house prepacked Ni-IDA (Protino Ni-IDA Resin, Macherey-Nagel, Duren, Germany) columns and were washed with at least 10 column volumes of cold wash buffer [50 mM tris (pH 7.5), 150 mM NaCl, and 2 mM β-mercaptoethanol] before elution with 250 mM imidazole. The Ni elution was collected directly on a preequilibrated amylose column (amylose high flow resin, New England Biolabs, Ipswich, MA). […] The concentration of proteins was determined by their ultraviolet absorption at 280 nm before aliquots were snap-frozen in liquid nitrogen and stored at -80°C. […] To saturate streptavidin resin with biotinylated proteins, 50 μl of streptavidin resin (Streptavidin Sepharose High Performance, Cytiva) was mixed with biotinylated MBP or MBP-PDZ at 40 to 50 μM concentration in 20× resin volume for 60 min. […] Last, resins were washed two times (10 resin volume, holdup buffer). […]

Molecule	FC_AP (log2 fold change) (SNX27_PDZ [1])	Ratio_AP (SNX27_PDZ [1])	pKapp_HU_not_filtered (SNX27_PDZ [2]; apparent, Eq. 2, not filtered for significance)	pKapp_significant_binders_HU (SNX27_PDZ [2]; apparent, Eq. 2, significant binders (1 σ, P < 0.05))	BI_HU (SNX27_PDZ [2]; n = 6)	FC_HU (log2 fold change) (SNX27_PDZ [2]; n = 6)	Ratio_HU (SNX27_PDZ [2]; n = 6)	f (active fraction) (full-length SNX27)
B1	-0.3792	0.7689	4.74	4.74	0.3538	-0.63	0.6462	–
B2	–	–	–	–	–	–	–	0.9
